Article PMC2572730, “Structural Basis for the Recognition of Histone H4 by the Histone-Chaperone RbAp46” (Structure(London, England:1993), 2008)

Biological target: histone H3 (Xenopus laevis, recombinant full length) (Xenopus laevis) (UniProt P84233)
Experiment: cross-linking; BS3 crosslinker in 1.1 M NaCl, 20 mM HEPES (pH 7.5), 10 mM DTT; ~10 uM RbAp46, H3/H4 or RbAp46/H3/H4; room temperature, 30 min; NuPAGE, Coomassie and blots with anti-H3 and anti-H4

stoichiometry N: 2
Substance: histone H3 (Xenopus laevis, recombinant full length) (from UniProt P84233 1-136) (natural protein)
